The values below come from patent EP4538294A1 (Shandong Simcere Biopharmaceutical Co., Ltd., dated 2025).

Assay [1] concerns the target T1, human BCMA on Flp-inCHO-human BCMA cells (human, UniProt Q02223 1-184).
T1 construct: whole, on cells
T1 sequence (looked up): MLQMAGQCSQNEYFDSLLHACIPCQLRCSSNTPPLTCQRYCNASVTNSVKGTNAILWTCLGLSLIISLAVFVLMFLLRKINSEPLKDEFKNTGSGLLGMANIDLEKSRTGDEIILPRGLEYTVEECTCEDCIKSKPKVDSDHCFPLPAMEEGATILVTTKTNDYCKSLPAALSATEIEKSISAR
Put plainly: FACS, Flp-inCHO-human BCMA cells. On the technique in general: Flow cytometry measures light scatter and fluorescence of single cells or particles in a stream.

Assay [2] has as its target T2, human GPRC5D on CHOK1-human GPRC5D cells (human, UniProt Q9NZD1 1-345).
T2 construct: whole, on cells
Put plainly: FACS, CHOK1-human GPRC5D cells.

Assay [3] has as its target T3, monkey CD3 on activated monkey PBMC (monkey).
T3 construct: whole, on cells
Put plainly: FACS, activated monkey PBMC.

T3 sequence (Q95LI5 22-198): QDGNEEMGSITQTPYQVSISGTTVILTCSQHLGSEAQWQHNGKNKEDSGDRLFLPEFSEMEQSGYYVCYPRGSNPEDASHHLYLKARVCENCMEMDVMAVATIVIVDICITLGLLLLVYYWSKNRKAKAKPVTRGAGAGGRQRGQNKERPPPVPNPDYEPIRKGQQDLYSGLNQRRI
T2 sequence (Q9NZD1 whole entry): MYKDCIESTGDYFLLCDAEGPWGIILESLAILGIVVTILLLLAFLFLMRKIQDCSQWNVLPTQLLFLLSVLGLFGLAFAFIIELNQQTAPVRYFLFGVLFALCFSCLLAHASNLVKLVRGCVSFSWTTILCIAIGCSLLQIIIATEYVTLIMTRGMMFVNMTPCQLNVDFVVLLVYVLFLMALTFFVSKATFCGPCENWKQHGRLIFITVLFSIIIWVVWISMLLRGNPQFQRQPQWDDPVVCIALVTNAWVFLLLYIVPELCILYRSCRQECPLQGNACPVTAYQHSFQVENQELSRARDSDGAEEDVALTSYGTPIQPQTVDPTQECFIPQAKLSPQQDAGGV

B1: Tri-17 (trispecific antibody, V domains shown)
VHH: EVQLVESGGGLVQPGGSLRLSCSASGFTLDYYMIGWFRQAPGKEREGLSSISPADGSTYYADSVKGRFTISRDSSKNTVYLQMNSLRAEDTAVYYCAAGNEATISWGFGPWEYDYWGQGTMVTVSS
VH 1: EVQLVQSGAEVKKPGSSVKVSCKASGYTFTSYGISWVRQAPGQGLEWMGEIYPRSGNTYYNEKFKGRVTLTADKSTSTAYMELSSLRSEDTAVYYCARGRAYGRNYPMDYWGQGTTVTVSS
VL 1: EIVLTQSPATLSLSPGERATLSCRASQSIGTSIHWYQQKPGQSPRLLIKYASESISGIPARFSGSGSGTDFTLTISSLEPEDFAVYYCQQSNSWPYTFGGGTKVEIK
VH 2: EVQLVESGGGVVQPGRSLRLSCAASGFTFTDYYMSWVRQAPGKGLEWVAMSRNKAKGHTIEYSSSVKGRFTISRDNSKNTLYLQMNSLRAEDTAVYYCARDTYESYDGYFDVWGQGTTVTVSS
VL 2: DIVMTQSPDSLAVSLGERATINCKSSQSLFNSRSRKNYLAWYQQKPGQTPKLLIYWASIRESGVPDRFSGSGSGTDFTLTISSLQAEDVAVYYCKQSYYLYTFGQGTKLEIK
One may read the EC50 as the midpoint of the concentration-response curve. Turning to B1, the figures for the EC50 in assay [1] and in assay [2] were 2.97 nM and 0.69 nM, respectively. Besides, the “Maximum mean fluorescence intensity” value in assay [3] stood at 3280.

B2: Tri-56 (trispecific antibody, V domains shown)
VHH: EVQLVESGGGLVQPGGSLRLSCAASESISSIHIMAWYRQAPGKQRELVAGIRNDGSTVYVDSVKGRFTISRDNAKNSLYLQMNSLRAEDTAVYYCNADQGFGSYSEWERRSRWGQGTTVTVSS
VH 1: EVQLVQSGAEVKKPGSSVKVSCKASGYTFTSYGISWVRQAPGQGLEWMGEIYPRSGNTYYNEKFKGRVTLTADKSTSTAYMELSSLRSEDTAVYYCARGRAYGRNYPMDYWGQGTTVTVSS
VL 1: EIVLTQSPATLSLSPGERATLSCRASQSIGTSIHWYQQKPGQSPRLLIKYASESISGIPARFSGSGSGTDFTLTISSLEPEDFAVYYCQQSNSWPYTFGGGTKVEIK
VH 2: EVQLVESGGGVVQPGRSLRLSCAASGFTFTDYYMSWVRQAPGKGLEWVAMSRNKAKGHTIEYSSSVKGRFTISRDNSKNTLYLQMNSLRAEDTAVYYCARDTYESYDGYFDVWGQGTTVTVSS
VL 2: DIVMTQSPDSLAVSLGERATINCKSSQSLFNSRSRKNYLAWYQQKPGQTPKLLIYWASIRESGVPDRFSGSGSGTDFTLTISSLQAEDVAVYYCKQSYYLYTFGQGTKLEIK
Turning to B2, the EC50 in assay [1] was found to be 1.3 nM; in assay [2], 0.38 nM. For the same molecule, the “Maximum mean fluorescence intensity” value in assay [3] was 575.

B3: Tri-63 (trispecific antibody, V domains shown)
VHH: EVQLVESGGGLVQPGGSLRLSCAASESISSIHIMAWYRQAPGKQRELVAGIRNDGSTVYVDSVKGRFTISRDNAKNSLYLQMNSLRAEDTAVYYCNADQGFGSYSEWERRSRWGQGTTVTVSS
VH 1: EVQLVQSGAEVKKPGSSVKVSCKASGYTFTSYGISWVRQAPGQGLEWMGEIYPRSGNTYYNEKFKGRVTLTADKSTSTAYMELSSLRSEDTAVYYCARGRAYGRNYPMDYWGQGTTVTVSS
VL 1: EIVLTQSPATLSLSPGERATLSCRASQSIGTSIHWYQQKPGQSPRLLIKYASESISGIPARFSGSGSGTDFTLTISSLEPEDFAVYYCQQSNSWPYTFGGGTKVEIK
VH 2: EVQLVESGGGVVQPGRSLRLSCAASGFTFTDYYMSWVRQAPGKGLEWVAMSRNKAKGHTIEYSSSVKGRFTISRDNSKNTLYLQMNSLRAEDTAVYYCARDTYESYDGYFDVWGQGTTVTVSS
VL 2: DIVMTQSPDSLAVSLGERATINCKSSQSLFNSRSRKNYLAWYQQKPGQTPKLLIYWASIRESGVPDRFSGSGSGTDFTLTISSLQAEDVAVYYCKQSYYLYTFGQGTKLEIK
Consider B3, for which the values for the EC50 in assay [1] and in assay [2] were 2.1 nM and 3.8 nM, respectively. Moreover, the “Maximum mean fluorescence intensity” value in assay [3] stood at 434.
